# Results: the supplement of paper PMC10065799, “High-throughput profiling of sequence recognition by tyrosine kinases and SH2 domains using bacterial peptide display” (eLife, 2023)
# Legend:
# MERTK = MERTK (UniProt Q12866); test: phosphorylation enrichment, bacterial display (enrichment ratio); higher = better substrate or ligand; peptides without Tyr show the background
# c-Abl (mouse) = test: as above
# Hck = Hck (UniProt P08631); test: as above
# Fes = Fes (UniProt P07332); test: as above
# EPHB2 = EPHB2 (UniProt P29323); test: as above
# EPHB2, sequence (P29323 whole entry, looked up): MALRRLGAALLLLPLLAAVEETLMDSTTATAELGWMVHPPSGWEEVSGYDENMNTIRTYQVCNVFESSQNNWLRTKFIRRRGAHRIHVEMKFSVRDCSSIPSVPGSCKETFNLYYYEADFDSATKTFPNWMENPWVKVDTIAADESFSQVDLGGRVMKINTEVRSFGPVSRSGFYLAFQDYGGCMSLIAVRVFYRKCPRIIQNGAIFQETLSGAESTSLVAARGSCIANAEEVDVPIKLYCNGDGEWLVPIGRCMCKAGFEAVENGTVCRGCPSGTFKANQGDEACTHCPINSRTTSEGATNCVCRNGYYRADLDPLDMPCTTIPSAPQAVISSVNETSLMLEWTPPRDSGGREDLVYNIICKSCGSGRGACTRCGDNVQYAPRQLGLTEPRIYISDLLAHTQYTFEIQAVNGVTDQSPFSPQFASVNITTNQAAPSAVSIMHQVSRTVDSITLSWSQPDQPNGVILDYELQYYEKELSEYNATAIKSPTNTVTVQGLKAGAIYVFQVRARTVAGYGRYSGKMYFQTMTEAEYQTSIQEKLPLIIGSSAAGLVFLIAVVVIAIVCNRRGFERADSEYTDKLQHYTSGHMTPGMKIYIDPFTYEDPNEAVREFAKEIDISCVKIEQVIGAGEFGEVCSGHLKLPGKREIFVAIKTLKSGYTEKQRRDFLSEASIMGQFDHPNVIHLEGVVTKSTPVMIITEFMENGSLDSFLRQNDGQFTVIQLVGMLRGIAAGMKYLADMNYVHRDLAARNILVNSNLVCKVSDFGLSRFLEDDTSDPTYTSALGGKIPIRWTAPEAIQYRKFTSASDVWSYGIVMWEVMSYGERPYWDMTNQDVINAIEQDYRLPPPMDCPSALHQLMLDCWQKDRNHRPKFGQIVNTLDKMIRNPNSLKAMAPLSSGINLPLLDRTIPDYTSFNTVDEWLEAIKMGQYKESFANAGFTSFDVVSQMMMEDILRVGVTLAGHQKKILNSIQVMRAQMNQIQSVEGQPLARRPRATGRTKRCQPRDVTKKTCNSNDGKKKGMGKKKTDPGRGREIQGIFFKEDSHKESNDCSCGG
# EPHB1 = EPHB1 (UniProt P54762); test: as above
# EPHB1, sequence (P54762 whole entry, looked up): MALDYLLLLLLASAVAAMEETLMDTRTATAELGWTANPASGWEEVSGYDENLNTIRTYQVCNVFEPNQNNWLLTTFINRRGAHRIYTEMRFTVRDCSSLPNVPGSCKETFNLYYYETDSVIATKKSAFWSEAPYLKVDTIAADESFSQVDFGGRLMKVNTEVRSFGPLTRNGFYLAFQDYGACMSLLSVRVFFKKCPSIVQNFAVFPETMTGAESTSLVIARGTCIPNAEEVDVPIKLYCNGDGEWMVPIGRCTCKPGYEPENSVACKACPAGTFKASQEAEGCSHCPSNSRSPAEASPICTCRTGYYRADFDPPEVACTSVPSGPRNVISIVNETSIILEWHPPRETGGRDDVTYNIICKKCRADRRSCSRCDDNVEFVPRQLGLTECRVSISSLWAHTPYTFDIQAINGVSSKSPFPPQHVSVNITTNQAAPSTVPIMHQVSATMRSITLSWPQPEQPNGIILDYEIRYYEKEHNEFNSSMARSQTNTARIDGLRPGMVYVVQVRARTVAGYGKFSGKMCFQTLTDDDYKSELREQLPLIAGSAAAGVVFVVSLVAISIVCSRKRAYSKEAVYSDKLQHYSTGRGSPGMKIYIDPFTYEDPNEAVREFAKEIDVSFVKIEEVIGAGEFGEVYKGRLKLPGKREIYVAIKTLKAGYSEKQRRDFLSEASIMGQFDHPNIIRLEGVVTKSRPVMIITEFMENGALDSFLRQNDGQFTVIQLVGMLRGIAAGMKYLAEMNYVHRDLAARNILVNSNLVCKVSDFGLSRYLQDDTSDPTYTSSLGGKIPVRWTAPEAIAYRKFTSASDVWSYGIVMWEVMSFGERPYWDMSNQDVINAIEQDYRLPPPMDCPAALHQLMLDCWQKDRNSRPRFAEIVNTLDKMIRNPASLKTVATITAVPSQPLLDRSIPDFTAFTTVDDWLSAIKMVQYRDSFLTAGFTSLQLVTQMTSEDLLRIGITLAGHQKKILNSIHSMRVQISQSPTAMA
# AncSZ = test: as above
# FGFR3 = FGFR3 (UniProt P22607); test: as above
# FGFR3, sequence (P22607 whole entry, looked up): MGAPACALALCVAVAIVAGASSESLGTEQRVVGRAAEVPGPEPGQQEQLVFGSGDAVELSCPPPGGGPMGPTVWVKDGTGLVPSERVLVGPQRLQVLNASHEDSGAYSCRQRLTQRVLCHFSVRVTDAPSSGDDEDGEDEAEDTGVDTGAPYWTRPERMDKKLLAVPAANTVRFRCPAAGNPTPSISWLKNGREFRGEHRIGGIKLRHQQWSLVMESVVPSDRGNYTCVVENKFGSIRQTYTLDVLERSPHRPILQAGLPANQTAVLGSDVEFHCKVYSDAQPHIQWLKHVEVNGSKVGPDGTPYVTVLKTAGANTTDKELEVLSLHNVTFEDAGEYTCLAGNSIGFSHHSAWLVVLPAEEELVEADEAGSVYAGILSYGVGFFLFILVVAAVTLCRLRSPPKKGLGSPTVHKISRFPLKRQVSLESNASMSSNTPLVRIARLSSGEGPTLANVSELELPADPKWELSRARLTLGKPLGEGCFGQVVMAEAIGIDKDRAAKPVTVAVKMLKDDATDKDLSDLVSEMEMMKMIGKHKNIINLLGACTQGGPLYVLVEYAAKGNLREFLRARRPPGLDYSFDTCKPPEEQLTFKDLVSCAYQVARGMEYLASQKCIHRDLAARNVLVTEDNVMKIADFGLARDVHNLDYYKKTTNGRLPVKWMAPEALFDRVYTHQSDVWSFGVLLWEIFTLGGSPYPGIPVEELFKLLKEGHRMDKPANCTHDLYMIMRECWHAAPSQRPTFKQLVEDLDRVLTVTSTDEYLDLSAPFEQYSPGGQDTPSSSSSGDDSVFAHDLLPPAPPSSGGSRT
# FGFR1 = FGFR1 (UniProt P11362); test: as above
# FGFR1, sequence (P11362 whole entry, looked up): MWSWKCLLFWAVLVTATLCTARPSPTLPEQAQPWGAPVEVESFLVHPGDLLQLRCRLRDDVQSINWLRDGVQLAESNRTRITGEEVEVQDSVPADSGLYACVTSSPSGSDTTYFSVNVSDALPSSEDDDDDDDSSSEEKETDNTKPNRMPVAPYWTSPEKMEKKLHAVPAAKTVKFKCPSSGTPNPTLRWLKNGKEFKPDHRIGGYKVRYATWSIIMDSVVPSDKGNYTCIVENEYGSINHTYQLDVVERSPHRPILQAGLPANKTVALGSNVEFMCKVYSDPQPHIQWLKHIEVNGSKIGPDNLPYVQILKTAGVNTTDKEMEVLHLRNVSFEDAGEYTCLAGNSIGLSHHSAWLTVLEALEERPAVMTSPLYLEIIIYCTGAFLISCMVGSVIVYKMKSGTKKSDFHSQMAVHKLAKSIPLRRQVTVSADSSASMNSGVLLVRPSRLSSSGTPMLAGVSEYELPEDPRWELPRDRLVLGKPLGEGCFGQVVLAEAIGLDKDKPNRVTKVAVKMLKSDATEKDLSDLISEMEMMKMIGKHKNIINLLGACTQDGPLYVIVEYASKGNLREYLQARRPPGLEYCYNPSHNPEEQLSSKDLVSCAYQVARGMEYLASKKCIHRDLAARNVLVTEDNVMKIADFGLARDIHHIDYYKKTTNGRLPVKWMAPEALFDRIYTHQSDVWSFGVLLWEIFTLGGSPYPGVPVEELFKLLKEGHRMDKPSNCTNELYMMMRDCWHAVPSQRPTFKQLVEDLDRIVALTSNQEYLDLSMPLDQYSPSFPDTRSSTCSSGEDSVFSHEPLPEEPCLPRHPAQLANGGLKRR
# Fer (mouse) = test: as above
# c-Src = test: as above
# Jak2 = Jak2 (UniProt O60674); test: as above
# Fyn = Fyn (UniProt P06241); test: as above
# Fyn, sequence (P06241 whole entry, looked up): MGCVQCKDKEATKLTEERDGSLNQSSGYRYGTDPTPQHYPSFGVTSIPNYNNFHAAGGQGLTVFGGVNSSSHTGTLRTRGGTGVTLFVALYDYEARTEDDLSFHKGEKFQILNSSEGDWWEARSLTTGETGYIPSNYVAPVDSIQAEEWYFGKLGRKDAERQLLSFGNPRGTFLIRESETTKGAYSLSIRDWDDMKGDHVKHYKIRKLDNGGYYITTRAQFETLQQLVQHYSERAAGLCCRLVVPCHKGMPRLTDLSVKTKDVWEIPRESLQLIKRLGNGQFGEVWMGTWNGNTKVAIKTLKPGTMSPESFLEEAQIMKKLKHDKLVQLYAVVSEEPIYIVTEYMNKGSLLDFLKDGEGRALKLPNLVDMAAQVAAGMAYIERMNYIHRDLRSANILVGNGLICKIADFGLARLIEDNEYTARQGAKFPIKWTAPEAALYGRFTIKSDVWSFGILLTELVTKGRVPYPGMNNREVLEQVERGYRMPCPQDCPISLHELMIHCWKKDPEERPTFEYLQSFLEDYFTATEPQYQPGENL
# SHP2-C SH2 = test: SH2 binding enrichment of the phosphorylated peptide, bacterial display (enrichment ratio); higher = better substrate or ligand; peptides without Tyr show the background
# Grb2 SH2 = Grb2 SH2 (UniProt P62993); test: as above
# Grb2 SH2, sequence (P62993 whole entry, looked up): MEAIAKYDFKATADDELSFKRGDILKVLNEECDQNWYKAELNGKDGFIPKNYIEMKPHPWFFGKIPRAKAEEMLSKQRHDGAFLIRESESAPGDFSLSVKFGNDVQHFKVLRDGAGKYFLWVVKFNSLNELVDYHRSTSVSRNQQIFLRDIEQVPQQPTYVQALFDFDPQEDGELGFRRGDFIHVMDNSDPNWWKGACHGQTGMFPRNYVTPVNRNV
# c-Src SH2 = test: as above
# 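Throughout, for SH2 binding enrichment of the phosphorylated peptide, bacterial display: peptide library displayed on the E. coli surface as eCPX fusions, selected cells deep-sequenced, score is each peptide's frequency after selection divided by its frequency in the input.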
# 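Throughout, for phosphorylation enrichment, bacterial display: 11-residue human phosphosite peptides and single-mutation variants displayed on the E. coli surface, counted by deep sequencing, each peptide's frequency after selection divided by its frequency in the unselected input library; frequency after pTyr selection over input frequency; kinase dosed for 20-30% of maximal phosphorylation in three min.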
# Hck, sequence (P08631 whole entry, looked up): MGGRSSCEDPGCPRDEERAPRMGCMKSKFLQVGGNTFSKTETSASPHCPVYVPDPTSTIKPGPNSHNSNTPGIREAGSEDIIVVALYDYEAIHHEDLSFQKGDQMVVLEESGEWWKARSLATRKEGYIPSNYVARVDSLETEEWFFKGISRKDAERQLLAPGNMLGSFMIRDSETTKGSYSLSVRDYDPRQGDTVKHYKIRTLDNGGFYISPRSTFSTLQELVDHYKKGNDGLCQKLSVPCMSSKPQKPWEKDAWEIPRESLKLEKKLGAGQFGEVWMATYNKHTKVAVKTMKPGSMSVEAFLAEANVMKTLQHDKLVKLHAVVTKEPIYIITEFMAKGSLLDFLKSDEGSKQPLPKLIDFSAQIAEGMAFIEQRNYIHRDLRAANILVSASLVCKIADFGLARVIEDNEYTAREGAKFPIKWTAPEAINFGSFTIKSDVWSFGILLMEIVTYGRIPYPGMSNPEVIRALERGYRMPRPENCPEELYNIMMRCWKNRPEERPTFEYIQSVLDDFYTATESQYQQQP
sequence,measurement,setting,value
RSRSPYSPVFR [CDK13_Y399_L403F],phosphorylation enrichment,MERTK,0.655
same,phosphorylation enrichment,c-Abl (mouse),0.58
same,phosphorylation enrichment,Hck,0.736
same,phosphorylation enrichment,Fes,0.77
same,phosphorylation enrichment,EPHB2,0.452
same,phosphorylation enrichment,EPHB1,0.546
same,phosphorylation enrichment,AncSZ,0.812
same,phosphorylation enrichment,FGFR3,0.462
same,phosphorylation enrichment,FGFR1,0.459
same,phosphorylation enrichment,Fer (mouse),0.403
same,phosphorylation enrichment,c-Src,0.576
same,phosphorylation enrichment,Jak2,0.737
same,phosphorylation enrichment,Fyn,0.6
same,SH2 binding enrichment,SHP2-C SH2,0.405
same,SH2 binding enrichment,Grb2 SH2,0.706
same,SH2 binding enrichment,c-Src SH2,0.463
KGLMPYGQPRP [SRRT_Y798_Q793K],phosphorylation enrichment,MERTK,0.527
same,phosphorylation enrichment,c-Abl (mouse),0.455
same,phosphorylation enrichment,Hck,0.325
same,phosphorylation enrichment,Fes,0.727
same,phosphorylation enrichment,EPHB2,0.371
same,phosphorylation enrichment,EPHB1,0.365
same,phosphorylation enrichment,AncSZ,0.444
same,phosphorylation enrichment,FGFR3,0.366
same,phosphorylation enrichment,FGFR1,0.388
same,phosphorylation enrichment,Fer (mouse),0.363
same,phosphorylation enrichment,c-Src,0.378
same,phosphorylation enrichment,Jak2,0.426
same,phosphorylation enrichment,Fyn,0.36
same,SH2 binding enrichment,SHP2-C SH2,0.986
same,SH2 binding enrichment,Grb2 SH2,0.923
same,SH2 binding enrichment,c-Src SH2,0.558
ILNANCMAKRL [GLDC_Y839_Y839C],phosphorylation enrichment,MERTK,0.42
same,phosphorylation enrichment,c-Abl (mouse),0.498
same,phosphorylation enrichment,Hck,0.391
same,phosphorylation enrichment,Fes,0.628
same,phosphorylation enrichment,EPHB2,0.439
same,phosphorylation enrichment,EPHB1,0.306
same,phosphorylation enrichment,AncSZ,0.612
same,phosphorylation enrichment,FGFR3,0.403
same,phosphorylation enrichment,FGFR1,0.477
same,phosphorylation enrichment,Fer (mouse),0.342
same,phosphorylation enrichment,c-Src,0.378
same,phosphorylation enrichment,Jak2,0.611
same,phosphorylation enrichment,Fyn,0.351
same,SH2 binding enrichment,SHP2-C SH2,0.727
same,SH2 binding enrichment,Grb2 SH2,0.802
same,SH2 binding enrichment,c-Src SH2,0.534
HYPDVYAWEQL [ALX3_Y181_R183W],phosphorylation enrichment,MERTK,3.27
same,phosphorylation enrichment,c-Abl (mouse),0.404
same,phosphorylation enrichment,Hck,4.12
same,phosphorylation enrichment,Fes,1.31
same,phosphorylation enrichment,EPHB2,0.865
same,phosphorylation enrichment,EPHB1,0.913
same,phosphorylation enrichment,AncSZ,1.14
same,phosphorylation enrichment,FGFR3,1.16
same,phosphorylation enrichment,FGFR1,1.19
same,phosphorylation enrichment,Fer (mouse),13.2
same,phosphorylation enrichment,c-Src,5.25
same,phosphorylation enrichment,Jak2,0.847
same,phosphorylation enrichment,Fyn,8.69
same,SH2 binding enrichment,SHP2-C SH2,0.928
same,SH2 binding enrichment,Grb2 SH2,0.716
same,SH2 binding enrichment,c-Src SH2,0.723
MACDRYVAICS [OR8D4_Y123],phosphorylation enrichment,MERTK,0.576
same,phosphorylation enrichment,c-Abl (mouse),0.55
same,phosphorylation enrichment,Hck,0.45
same,phosphorylation enrichment,Fes,0.841
same,phosphorylation enrichment,EPHB2,0.592
same,phosphorylation enrichment,EPHB1,0.508
same,phosphorylation enrichment,AncSZ,0.709
same,phosphorylation enrichment,FGFR3,0.503
same,phosphorylation enrichment,FGFR1,0.623
same,phosphorylation enrichment,Fer (mouse),0.475
same,phosphorylation enrichment,c-Src,0.586
same,phosphorylation enrichment,Jak2,0.755
same,phosphorylation enrichment,Fyn,0.529
same,SH2 binding enrichment,SHP2-C SH2,3.31
same,SH2 binding enrichment,Grb2 SH2,0.743
same,SH2 binding enrichment,c-Src SH2,7.31
YTHSDYQYGQR [PKP2_Y166_S169G],phosphorylation enrichment,MERTK,0.424
same,phosphorylation enrichment,c-Abl (mouse),0.492
same,phosphorylation enrichment,Hck,0.703
same,phosphorylation enrichment,Fes,0.496
same,phosphorylation enrichment,EPHB2,0.416
same,phosphorylation enrichment,EPHB1,0.436
same,phosphorylation enrichment,AncSZ,0.867
same,phosphorylation enrichment,FGFR3,0.606
same,phosphorylation enrichment,FGFR1,0.531
same,phosphorylation enrichment,Fer (mouse),0.572
same,phosphorylation enrichment,c-Src,0.439
same,phosphorylation enrichment,Jak2,0.317
same,phosphorylation enrichment,Fyn,0.476
same,SH2 binding enrichment,SHP2-C SH2,0.885
same,SH2 binding enrichment,Grb2 SH2,0.712
same,SH2 binding enrichment,c-Src SH2,0.692
VCDALYPPGPP,phosphorylation enrichment,MERTK,0.282
same,phosphorylation enrichment,c-Abl (mouse),0.766
same,phosphorylation enrichment,Hck,0.288
same,phosphorylation enrichment,Fes,0.794
same,phosphorylation enrichment,EPHB2,0.329
same,phosphorylation enrichment,EPHB1,0.465
same,phosphorylation enrichment,AncSZ,0.779
same,phosphorylation enrichment,FGFR3,0.467
same,phosphorylation enrichment,FGFR1,0.421
same,phosphorylation enrichment,Fer (mouse),0.489
same,phosphorylation enrichment,c-Src,0.443
same,phosphorylation enrichment,Jak2,0.73
same,phosphorylation enrichment,Fyn,0.306
same,SH2 binding enrichment,SHP2-C SH2,0.675
same,SH2 binding enrichment,Grb2 SH2,0.863
same,SH2 binding enrichment,c-Src SH2,0.62
MGGSLYFSFPD [HIKESHI_Y55_V54L_YF],phosphorylation enrichment,MERTK,9.75
same,phosphorylation enrichment,c-Abl (mouse),1.61
same,phosphorylation enrichment,Hck,4.95
same,phosphorylation enrichment,Fes,1.8
same,phosphorylation enrichment,EPHB2,5.46
same,phosphorylation enrichment,EPHB1,7.73
same,phosphorylation enrichment,AncSZ,2.27
same,phosphorylation enrichment,FGFR3,5.74
same,phosphorylation enrichment,FGFR1,5.92
same,phosphorylation enrichment,Fer (mouse),0.871
same,phosphorylation enrichment,c-Src,5.75
same,phosphorylation enrichment,Jak2,3.96
same,phosphorylation enrichment,Fyn,5.08
same,SH2 binding enrichment,SHP2-C SH2,0.591
same,SH2 binding enrichment,Grb2 SH2,0.926
same,SH2 binding enrichment,c-Src SH2,0.444
SVTCTGSPALN [TP53_Y126_Y126G],phosphorylation enrichment,MERTK,0.385
same,phosphorylation enrichment,c-Abl (mouse),0.612
same,phosphorylation enrichment,Hck,0.459
same,phosphorylation enrichment,Fes,0.972
same,phosphorylation enrichment,EPHB2,0.487
same,phosphorylation enrichment,EPHB1,0.539
same,phosphorylation enrichment,AncSZ,0.792
same,phosphorylation enrichment,FGFR3,0.511
same,phosphorylation enrichment,FGFR1,0.422
same,phosphorylation enrichment,Fer (mouse),0.423
same,phosphorylation enrichment,c-Src,0.387
same,phosphorylation enrichment,Jak2,0.741
same,phosphorylation enrichment,Fyn,0.422
same,SH2 binding enrichment,SHP2-C SH2,0.625
same,SH2 binding enrichment,Grb2 SH2,0.796
same,SH2 binding enrichment,c-Src SH2,0.388
HGAKVYIDPFT [EPHB4_Y590_T587A],phosphorylation enrichment,MERTK,0.535
same,phosphorylation enrichment,c-Abl (mouse),0.831
same,phosphorylation enrichment,Hck,0.792
same,phosphorylation enrichment,Fes,1.04
same,phosphorylation enrichment,EPHB2,0.975
same,phosphorylation enrichment,EPHB1,1.08
same,phosphorylation enrichment,AncSZ,0.986
same,phosphorylation enrichment,FGFR3,0.912
same,phosphorylation enrichment,FGFR1,1.46
same,phosphorylation enrichment,Fer (mouse),0.715
same,phosphorylation enrichment,c-Src,0.713
same,phosphorylation enrichment,Jak2,0.761
same,phosphorylation enrichment,Fyn,0.792
same,SH2 binding enrichment,SHP2-C SH2,0.668
same,SH2 binding enrichment,Grb2 SH2,0.712
same,SH2 binding enrichment,c-Src SH2,0.592
REQREYLEQLN [CCDC88B_Y1277_D1279E],phosphorylation enrichment,MERTK,0.58
same,phosphorylation enrichment,c-Abl (mouse),0.786
same,phosphorylation enrichment,Hck,0.706
same,phosphorylation enrichment,Fes,0.939
same,phosphorylation enrichment,EPHB2,0.559
same,phosphorylation enrichment,EPHB1,0.54
same,phosphorylation enrichment,AncSZ,1.18
same,phosphorylation enrichment,FGFR3,0.755
same,phosphorylation enrichment,FGFR1,0.611
same,phosphorylation enrichment,Fer (mouse),0.523
same,phosphorylation enrichment,c-Src,0.529
same,phosphorylation enrichment,Jak2,1.15
same,phosphorylation enrichment,Fyn,0.531
same,SH2 binding enrichment,SHP2-C SH2,0.73
same,SH2 binding enrichment,Grb2 SH2,0.679
same,SH2 binding enrichment,c-Src SH2,0.52
GLRQGYFVEAQ [APCS_Y142],phosphorylation enrichment,MERTK,0.36
same,phosphorylation enrichment,c-Abl (mouse),0.529
same,phosphorylation enrichment,Hck,0.408
same,phosphorylation enrichment,Fes,1.08
same,phosphorylation enrichment,EPHB2,0.505
same,phosphorylation enrichment,EPHB1,0.526
same,phosphorylation enrichment,AncSZ,0.945
same,phosphorylation enrichment,FGFR3,0.637
same,phosphorylation enrichment,FGFR1,0.559
same,phosphorylation enrichment,Fer (mouse),0.42
same,phosphorylation enrichment,c-Src,0.327
same,phosphorylation enrichment,Jak2,0.807
same,phosphorylation enrichment,Fyn,0.366
same,SH2 binding enrichment,SHP2-C SH2,0.718
same,SH2 binding enrichment,Grb2 SH2,0.85
same,SH2 binding enrichment,c-Src SH2,0.618
HLQQSNLPRGT [TEX45_Y396_Y396N],phosphorylation enrichment,MERTK,0.467
same,phosphorylation enrichment,c-Abl (mouse),0.703
same,phosphorylation enrichment,Hck,0.534
same,phosphorylation enrichment,Fes,0.757
same,phosphorylation enrichment,EPHB2,0.451
same,phosphorylation enrichment,EPHB1,0.447
same,phosphorylation enrichment,AncSZ,0.639
same,phosphorylation enrichment,FGFR3,0.644
same,phosphorylation enrichment,FGFR1,0.491
same,phosphorylation enrichment,Fer (mouse),0.279
same,phosphorylation enrichment,c-Src,0.42
same,phosphorylation enrichment,Jak2,0.689
same,phosphorylation enrichment,Fyn,0.445
same,SH2 binding enrichment,SHP2-C SH2,0.583
same,SH2 binding enrichment,Grb2 SH2,0.837
same,SH2 binding enrichment,c-Src SH2,0.748
ADRNHYRRYPR [YBX1_Y145],phosphorylation enrichment,MERTK,0.48
same,phosphorylation enrichment,c-Abl (mouse),0.717
same,phosphorylation enrichment,Hck,0.55
same,phosphorylation enrichment,Fes,0.644
same,phosphorylation enrichment,EPHB2,0.425
same,phosphorylation enrichment,EPHB1,0.424
same,phosphorylation enrichment,AncSZ,0.613
same,phosphorylation enrichment,FGFR3,0.465
same,phosphorylation enrichment,FGFR1,0.527
same,phosphorylation enrichment,Fer (mouse),0.46
same,phosphorylation enrichment,c-Src,0.515
same,phosphorylation enrichment,Jak2,0.585
same,phosphorylation enrichment,Fyn,0.544
same,SH2 binding enrichment,SHP2-C SH2,0.299
same,SH2 binding enrichment,Grb2 SH2,0.748
same,SH2 binding enrichment,c-Src SH2,0.403
EALSLYTKLMN [STAM_Y371],phosphorylation enrichment,MERTK,0.411
same,phosphorylation enrichment,c-Abl (mouse),0.832
same,phosphorylation enrichment,Hck,0.505
same,phosphorylation enrichment,Fes,1.48
same,phosphorylation enrichment,EPHB2,0.639
same,phosphorylation enrichment,EPHB1,0.615
same,phosphorylation enrichment,AncSZ,1.39
same,phosphorylation enrichment,FGFR3,0.856
same,phosphorylation enrichment,FGFR1,0.391
same,phosphorylation enrichment,Fer (mouse),0.509
same,phosphorylation enrichment,c-Src,0.551
same,phosphorylation enrichment,Jak2,1.49
same,phosphorylation enrichment,Fyn,0.402
same,SH2 binding enrichment,SHP2-C SH2,1.41
same,SH2 binding enrichment,Grb2 SH2,0.713
same,SH2 binding enrichment,c-Src SH2,1.02
VHSGTYQVTVR [MYBPC3_Y1043],phosphorylation enrichment,MERTK,0.409
same,phosphorylation enrichment,c-Abl (mouse),0.442
same,phosphorylation enrichment,Hck,0.738
same,phosphorylation enrichment,Fes,0.586
same,phosphorylation enrichment,EPHB2,0.489
same,phosphorylation enrichment,EPHB1,0.521
same,phosphorylation enrichment,AncSZ,0.593
same,phosphorylation enrichment,FGFR3,0.391
same,phosphorylation enrichment,FGFR1,0.404
same,phosphorylation enrichment,Fer (mouse),0.435
same,phosphorylation enrichment,c-Src,0.561
same,phosphorylation enrichment,Jak2,0.48
same,phosphorylation enrichment,Fyn,0.448
same,SH2 binding enrichment,SHP2-C SH2,0.64
same,SH2 binding enrichment,Grb2 SH2,0.725
same,SH2 binding enrichment,c-Src SH2,0.567
EVESPYEVRDY [GIGYF2_Y1168_H1171R],phosphorylation enrichment,MERTK,0.554
same,phosphorylation enrichment,c-Abl (mouse),0.765
same,phosphorylation enrichment,Hck,1.48
same,phosphorylation enrichment,Fes,1.29
same,phosphorylation enrichment,EPHB2,0.752
same,phosphorylation enrichment,EPHB1,0.785
same,phosphorylation enrichment,AncSZ,1.23
same,phosphorylation enrichment,FGFR3,0.751
same,phosphorylation enrichment,FGFR1,0.542
same,phosphorylation enrichment,Fer (mouse),5.62
same,phosphorylation enrichment,c-Src,4.71
same,phosphorylation enrichment,Jak2,1.16
same,phosphorylation enrichment,Fyn,5.17
same,SH2 binding enrichment,SHP2-C SH2,0.885
same,SH2 binding enrichment,Grb2 SH2,0.674
same,SH2 binding enrichment,c-Src SH2,0.626
